The results in this text go back to patent publication US20030088057.

The target in one data set is T1, AKRASEA.
T1 chain: AKRASEA

Another data set has as its target T2, KKRKSAA.
T2 chain: KKRKSAA

The target in another data set is T3, KKRASAA.
T3 chain: KKRASAA

For another data set, the target named is T4, EKRASAA.
T4 chain: EKRASAA

The next data set concerns the target T5, KKAASAA.
T5 chain: KKAASAA

A further data set has as its target T6, AARASAA.
T6 chain: AARASAA

The target in another data set is T7, ARRASAA.
T7 chain: ARRASAA

Another data set addresses T8, PKRASAA.
T8 chain: PKRASAA

For a further data set, the target named is T9, RKKKSAA.
T9 chain: RKKKSAA

The target in the next data set is T10, AKRASPA.
T10 chain: AKRASPA

In the next data set the target is T11, AKRPSAA.
T11 chain: AKRPSAA

For a further data set, the target named is T12, AAKKSAA.
T12 chain: AAKKSAA

In the next data set the target is T13, AKAASAA.
T13 chain: AKAASAA

The target of the next data set is T14, AKRKSAA.
T14 chain: AKRKSAA

For another data set, the target named is T15, AKRESAA.
T15 chain: AKRESAA

Another data set has as its target T16, ARKASAA.
T16 chain: ARKASAA

A further data set has as its target T17, AKRASAA.
T17 chain: AKRASAA

The target in another data set is T18, AAKRSAA.
T18 chain: AAKRSAA

Another data set addresses T19, AAAASKR.
T19 chain: AAAASKR

B1: γ-PAK activated by autophosphorylation in the presence of Cdc42(GTPγS) (protein)
chain: SDNGELEDKPPAPPVRMSSTIFSTGGKDPLSANHSLKPLPSVPEEKKPRNKIISIFSGTEKGSKKKEKERPEISPPSDFEHTIHVGFDAVTGEFTGMPEQWARLLQTSNITKLEQKKNPQAVLDVLKFYDSNTVKQKYLSFTPPEKDGFPSGAPALNTKVSETSAVVTEEDDDDEEAAPPVIAPRPDHTKSIYTRSVIDPIPAPVGDSHVDSGAKSSDKQKKKTKMTDEEIMEKLRTIVSIGDPKKKYTRYEKIGQGASGTVFTATDVALGQEVAIKQINLQKQPKKELIINEILVMKELKNPNIVNFLDSYLVGDELFVVMEYLAGGSLTDVVTETCMDEAQIAAVCRECLQALEFLHANQVIHRDIKSDNVLLGMEGSVKLTDFGFCAQITPEQSKRSTMVGTPYWMAPEVVTRKAYGPKVDIWSLGIMAIEMVEGEPPYLNENPLRALYLIATNGTPELQNPEKLSPIFRDFLNRCLEMDVEKRGSAKELLQHPFLKLAKPLSSLTPLIMAAKEAMKSNR
As for B1, the rel rate (%), Cdc42-activated (KKRKSAA = 100) with AKRASEA amounted to 88%; with KKRKSAA it was 100%; with KKRASAA it was 181%; with EKRASAA, 151%; with KKAASAA it was 3%; with AARASAA it was 56%. For the same protein, the rel rate (%), Cdc42-activated (KKRKSAA = 100) came out at 134% in the data set with ARRASAA; 184% with PKRASAA; 3% in the data set with RKKKSAA; 3% in the data set with AKRASPA; 11% with AKRPSAA; 0% in the data set with AAKKSAA. The rel rate (%), Cdc42-activated (KKRKSAA = 100) with AKAASAA was 3%; with AKRKSAA, 158%; with AKRESAA, 295%; with ARKASAA, 9%; in the data set with AKRASAA, 189%; with AAKRSAA, 0%. Further, the rel rate (%), Cdc42-activated (KKRKSAA = 100) with AAAASKR turned out to be 0%.

B2: Inactive γ-PAK (protein)
chain: SDNGELEDKPPAPPVRMSSTIFSTGGKDPLSANHSLKPLPSVPEEKKPRNKIISIFSGTEKGSKKKEKERPEISPPSDFEHTIHVGFDAVTGEFTGMPEQWARLLQTSNITKLEQKKNPQAVLDVLKFYDSNTVKQKYLSFTPPEKDGFPSGAPALNTKVSETSAVVTEEDDDDEEAAPPVIAPRPDHTKSIYTRSVIDPIPAPVGDSHVDSGAKSSDKQKKKTKMTDEEIMEKLRTIVSIGDPKKKYTRYEKIGQGASGTVFTATDVALGQEVAIKQINLQKQPKKELIINEILVMKELKNPNIVNFLDSYLVGDELFVVMEYLAGGSLTDVVTETCMDEAQIAAVCRECLQALEFLHANQVIHRDIKSDNVLLGMEGSVKLTDFGFCAQITPEQSKRSTMVGTPYWMAPEVVTRKAYGPKVDIWSLGIMAIEMVEGEPPYLNENPLRALYLIATNGTPELQNPEKLSPIFRDFLNRCLEMDVEKRGSAKELLQHPFLKLAKPLSSLTPLIMAAKEAMKSNR
In the case of B2, the “activity relative to the activated forms” value in the data set with all peptides is <5% of the activity of the activated forms with all peptides.
